Molecular target: RSV prefusion F (PR-DM) (respiratory syncytial virus A, UniProt P03420)
Assay: cryo-EM structure

| Binder | stoichiometry N [Fab per F trimer] |
| --- | --- |
| RSV-2245 Fab (Fab, V domains shown) VH: QVQLVQSGAEVKKPGASVKVSCKASGYSFSSFGVSWVRQAPGQGLEWLGWISAYNGNTDYAQKVQGRLTMTTDTSTNTAYMELRNLRSDDTAVYYCARDPPASAAAMFDYWGQGTLVTVSS VL: not shown | 3 |
| RSV-3301 Fab (Fab, V domains shown) VH: QVQLVESGPTLVKPTQTLTLTCSFSGFSLSTRGVGVGWVRQPPGKALECLGFTYWDGDEYYSPSLRNRVTISKDTSKNQVVLTLTNMDPVDTATYFCVHSDLYDRGGYYLYYFDYWGQGTLVTVSS VL: DIRVTQSPSSLSASVGDRVTITCRASQTIASYVNWYQQKPGRAPELLIYAASILQSGVPSRFSGRGSGTDFTLTINGLQPEDFATYYCQQSYSSPWTFGQGTKVEIK | 3 |
